Read-outs that look alike come from different tables or passages of the source.

Assay [1] addresses T1, human EpCAM-Myc-DDK expressed on CHO-K1 cells (human, UniProt P16422 24-314).
T1 construct: whole, on cells; also called EpCAM expressing cells; not shown: Myc-DDK tag of the ORIGENE construct
T1 sequence (looked up): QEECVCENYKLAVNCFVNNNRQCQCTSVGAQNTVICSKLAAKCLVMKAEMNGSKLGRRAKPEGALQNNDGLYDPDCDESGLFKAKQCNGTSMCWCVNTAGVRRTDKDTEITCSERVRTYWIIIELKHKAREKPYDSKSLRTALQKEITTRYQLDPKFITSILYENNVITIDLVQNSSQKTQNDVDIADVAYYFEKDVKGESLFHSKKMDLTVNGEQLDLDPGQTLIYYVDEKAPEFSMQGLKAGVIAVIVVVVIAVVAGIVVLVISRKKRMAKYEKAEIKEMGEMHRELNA
The assay can be described thus: flow cytometry of the clone supernatant on human EpCAM-Myc-DDK expressing CHO-K1 cells.

The target of assay [2] is T2, human CLDN4-Myc-DDK expressed on CHO-K1 cells (human, UniProt O14493 1-209).
T2 construct: whole, on cells; also called human CLDN4-Myc-DDK expressing CHO-K1 cells; not shown: Myc-DDK tag of the ORIGENE construct
T2 sequence (looked up): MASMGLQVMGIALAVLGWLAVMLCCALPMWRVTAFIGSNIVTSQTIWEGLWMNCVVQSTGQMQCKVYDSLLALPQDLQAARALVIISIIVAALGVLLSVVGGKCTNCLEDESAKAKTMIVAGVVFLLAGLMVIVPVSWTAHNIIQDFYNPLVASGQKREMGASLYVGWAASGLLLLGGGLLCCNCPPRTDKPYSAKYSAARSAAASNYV
Description: binding experiment on human CLDN4-Myc-DDK expressing CHO-K1 cells.

The target in assay [3] is T3, human CD137-His tag protein (R&D Systems, 9220-4B) (human, UniProt Q07011 24-186).
T3 construct: Bought protein; not shown: His tag of the bought protein
The assay can be described thus: ELISA, human CD137-His tag protein immobilized on the plate, anti-human IgG Fc-HRP, A450-A570. (In general: An ELISA detects its analyte on a solid surface through an enzyme-linked reagent.)

For assay [4], the target named is T4, human CLDN4 expressed on CHO-K1 cells (human, UniProt O14493 1-209).
T4 construct: whole, on cells; also called human CLDN4 expressing CHO-K1
T4 sequence (looked up): T2 sequence (looked up)
The assay can be described thus: flow cytometry on human CLDN4 expressing CHO-K1, apparent KD.

Assay [5] addresses T3, human CD137-His tag protein (R&D …). Description: ELISA, human CD137-His tag protein immobilized on the plate, anti-human IgG Fc-HRP, A450-A570. This is another data set of the same source.
The target is the same in assay [6]. Described as above. This is another data set of the same source.
The target is the same in assay [7]. The assay can be described thus: SPR, Biacore T200, antibody captured on Protein A chip, CD137 as analyte. A general note: SPR reads the build-up and loss of mass on a sensor chip optically.
Assay [8] has as its target T5, monkey CD137-His tag-3×FLAG tag fusion protein (monkey).
T5 construct: Residues 1-183 are the encoded extracellular region as stated; also called Monkey CD137-His-3 × FLAG
T5 chain: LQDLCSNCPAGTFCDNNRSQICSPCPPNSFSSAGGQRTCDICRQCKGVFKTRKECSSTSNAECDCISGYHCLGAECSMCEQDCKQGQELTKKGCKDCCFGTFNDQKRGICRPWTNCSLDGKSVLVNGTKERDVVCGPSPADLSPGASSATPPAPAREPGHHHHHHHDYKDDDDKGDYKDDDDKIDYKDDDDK
The assay is described as above.

B1: 3D11 antibody (antibody, V domains shown)
VH: QVQLGQSGPEVKKPGASVKVSCKASGYSFISYGISWVRQAPGQGLEWMGWSSVYNGNTNYVQKFQGRVTMTTDTSASTAYMELRSLRSDDAAVYYCARDSYSSGWSYYYSGMDVWGQGTTVTVSS
VL: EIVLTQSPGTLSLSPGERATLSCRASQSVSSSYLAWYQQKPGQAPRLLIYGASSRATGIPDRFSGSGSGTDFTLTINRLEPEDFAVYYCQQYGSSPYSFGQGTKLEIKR
notes: Purified from the hybridoma supernatant of a VelocImmune mouse: human variable regions with mouse constant regions (chimeric antibody); also called 3D11 clone
As for B1, the binding result in assay [1] is recorded as “no binding”; in assay [2] it was “binds”.

B2: anti-CLDN4 (hKM3900)/anti-CD137 scFv bispecific antibody hKM3900_3-34-j6 (bispecific antibody, human IgG1, kappa, L234A L235A)
heavy: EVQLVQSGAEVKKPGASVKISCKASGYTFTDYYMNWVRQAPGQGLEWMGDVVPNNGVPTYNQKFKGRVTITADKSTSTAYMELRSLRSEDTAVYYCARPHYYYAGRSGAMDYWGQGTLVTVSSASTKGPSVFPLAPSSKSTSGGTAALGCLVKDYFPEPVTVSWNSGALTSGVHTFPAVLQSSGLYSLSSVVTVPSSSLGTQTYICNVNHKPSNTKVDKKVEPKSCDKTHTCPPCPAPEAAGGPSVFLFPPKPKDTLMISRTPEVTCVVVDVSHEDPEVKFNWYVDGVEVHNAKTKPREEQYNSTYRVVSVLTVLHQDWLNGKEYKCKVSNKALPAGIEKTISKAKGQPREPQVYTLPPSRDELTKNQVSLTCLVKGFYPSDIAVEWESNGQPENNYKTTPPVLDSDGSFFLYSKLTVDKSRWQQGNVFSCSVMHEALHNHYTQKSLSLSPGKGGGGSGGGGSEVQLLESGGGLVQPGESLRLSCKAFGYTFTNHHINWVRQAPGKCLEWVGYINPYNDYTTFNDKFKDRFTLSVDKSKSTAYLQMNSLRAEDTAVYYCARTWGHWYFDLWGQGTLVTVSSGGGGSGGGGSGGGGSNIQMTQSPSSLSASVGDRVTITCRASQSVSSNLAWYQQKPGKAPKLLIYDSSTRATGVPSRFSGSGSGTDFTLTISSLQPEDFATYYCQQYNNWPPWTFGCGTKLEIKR
light: DIQLTQSPSSLSASVGDRVTITCTASSTVSSTYLHWYQQKPGKAPKLLIYSTSNLASGVPSRFSGSGSGTDYTLTISSLQPEDFATYYCHQYHRSPPTFGQGTKLEIKRTVAAPSVFIFPPSDEQLKSGTASVVCLLNNFYPREAKVQWKVDNALQSGNSQESVTEQDSKDSTYSLSSTLTLSKADYEKHKVYACEVTHQGLSSPVTKSFNRGEC
notes: The heavy chain entry holds the hKM3900 heavy chain (L234A, L235A, P331G), the linker and the 3-34-j6 scFv
Regarding B2, the “EC50 (read off the curve)” value is roughly 8 ng/mL in assay [3], roughly 10 ng/mL in assay [5] and roughly 6 ng/mL in assay [6]. The Kd in assay [4] amounted to 11.2 nM; in assay [7] it was 5.81 nM; in assay [8] it was 10.7 nM. For the same molecule, the values for the koff in assay [7] and in assay [8] were 0.00135 s⁻¹ and 0.00191 s⁻¹, respectively. Besides, the kon in assay [7] was found to be 232000 M⁻¹ s⁻¹; in assay [8], 179000 M⁻¹ s⁻¹.

B3: anti-CLDN4 (hKM3900)/anti-CD137 scFv bispecific antibody hKM3900_L-3-34-j6 (bispecific antibody)
heavy: EVQLVQSGAEVKKPGASVKISCKASGYTFTDYYMNWVRQAPGQGLEWMGDVVPNNGVPTYNQKFKGRVTITADKSTSTAYMELRSLRSEDTAVYYCARPHYYYAGRSGAMDYWGQGTLVTVSS
light (part 1 of 2): B2 light
light (part 2 of 2): EVQLLESGGGLVQPGESLRLSCKAFGYTFTNHHINWVRQAPGKCLEWVGYINPYNDYTTFNDKFKDRFTLSVDKSKSTAYLQMNSLRAEDTAVYYCARTWGHWYFDLWGQGTLVTVSSGGGGSGGGGSGGGGSNIQMTQSPSSLSASVGDRVTITCRASQSVSSNLAWYQQKPGKAPKLLIYDSSTRATGVPSRFSGSGSGTDFTLTISSLQPEDFATYYCQQYNNWPPWTFGCGTKLEIKR
notes: scFv at the light chain C-terminus; not shown: human IgG1 heavy chain constant region; mutation positions by EU index; GS linker
With B3, the “EC50 (read off the curve)” value in assay [6] is roughly 4 ng/mL.

A word on the EC50 (read off the curve): it is the concentration that produces a half-maximal response. One may read the koff as the first-order rate constant of dissociation. Broadly, the kon is a measure of how fast the partners come together.

These data come from patent US20250154272A1 (Astellas, published 2025).
